Results taken from patent US20020009436A1, “Methods and compositions for inhibiting adhesion by microorganisms” (priority 1999, published 2002).

What was measured:
[1] = test system: S. sobrinus 6715 glucan-binding lectin; experiment: Aggregation of S. sobrinus with high molecular weight dextran T-2000 (standard rate assay); assay type: cell-based, Streptococcus sobrinus; settings: cells treated with asparaginase
Protocol: S. sobrinus 6715 was maintained on tryptic soy agar (Difco, Detroit, Mich.) and grown for experiments in Terleckyj's defined medium or tryptic soy broth (TSB) (Difco) pretreated with dextranase (1 mg of enzyme per g dry medium) and invertase (5 mg per g dry medium) for 2 h each in 5% CO2 at 37° C. for 16-18h. Cultures were centrifuged at 12,000×g for 10 min and washed twice with cold phosphate buffered saline (PBS, 20 mM, pH 7.2). Cells were suspended in PBS to an optical density of 0.8 (A540). Cultures grown in TSB were harvested and suspended in PBS and subsequently treated with dextranase for 1 h, followed by washing two times in PBS.
The standard rate assay published by Drake et al. (Drake D. et al. Infect. Immun. 56:1864-1872 (1988)) was used to study the interaction of S. sobrinus 6715 glucan-binding lectin with high molecular weight dextran. Briefly, bacterial suspensions were adjusted to an optical density of 0.75-0.90 in PBS, and 3-ml suspensions were added to test tubes (13×100 mm). Dextran T-2000 was added at a final concentration of 10 1μg/ml and the suspensions were vortexed for 5 sec. Control tubes received PBS. The decrease in optical density was continuously monitored spectrophotometrically for 5 min. Rate constants were obtained from the slopes of first-order plots of ln A/A0 (A=observed optical density; A0 optical density at time zero) versus time in minutes. […]

[2] = test system: proteolytic activity of the P. gingivalis; experiment: Hydrolysis of collagen substrate (azocoll) by P. gingivalis; assay type: cell-based
Excerpt: The asparaginase and polyphenol oxidase thus not only affect the adhesion and/or hemagglutination, but also the proteolytic activity of the P. gingivalis.

Salmonella enteritidis = experiment: Hemagglutination of horse red blood cells by Salmonella enteritidis; assay type: cell-based; design: key: + Hemagglutination; − No hemagglutination; settings: 2 hr incubation, polyphenol oxidase 70 U/ml, asparaginase 65 U/ml
Protocol: Three Salmonella enteritidis clinical isolate strains, SE 79, SE 89-8312 and SE S1-072-Z were used. The bacterial strains were grown statically in brain heart infusion (BHI) broth for 48 h at 37° C. The cells were harvested by centrifugation and washed twice in 10 mM phosphate buffer (PB) pH 7.5. The final bacterial pellet was then suspended in the same buffer to the desired density.
Bacterial suspensions OD 1.0 (5 ml each) were mixed in the absence and presence of polyphenol oxidase (70 U/ml) or asparaginase (65 U/ml) and incubated statically at 37° C. for 2 h. The cells were then centrifuged and washed 2 times with PB (pH 7.5) and were suspended at a final volume 125 μl. These cells were subjected to hemagglutination tests.
For hemagglutination studies, red blood cells from horse were used. The red blood cells were washed with PBS (pH 7.5) by low speed centrifugation 10 min and suspended to 2% in the same buffer.

S. pyogenes = experiment: Adhesion of S. pyogenes to human buccal cells (light microscopy counts); assay type: cell-based, Streptococcus pyogenes
Protocol: Streptococcus pyogenes strains were grown and pure cultures isolated on blood agar plates at 37° C. Each were subsequently inoculated into brain heart infusion (BHI) nutrient broth at 37° C. for continued growth.
The cells of each S. pyogenes strains were then washed with phosphate buffer (pH 7) three times. The optical density (OD) of each stain was measured using a spectrophotometer, and adjusted to 0.8. One ml of each strain was treated with polyphenol oxidase or asparaginase. The controls and enzyme-supplemental cells were incubated for ninety minutes at 37° C. Each were washed three times for ten minutes at 15,000 rpm, and recollected in 0.9 ml phosphate buffer.
Human buccal cells were collected and cleaned in phosphate buffer. The buccal cells and S. pyogenes were combined in a ratio of 3:1 respectively, for each strain and allowed to incubate 30 min. Buccal cells were removed by centrifugation (500×g) and washed three times to reduce streptococcal background. The buccal cell-streptococcal complexes were then smeared on slides. The resulting slides were stained using the Gram method, and viewed under the 100× oil immersion lens. The number of S. pyogenes for each strain was counted for at least 50 buccal cells.

[3] = test system: F. nucleatum (adhesin) / A. actinomycetemcomitans (receptor); experiment: Coaggregation F. nucleatum / A. actinomycetemcomitans; settings: polyphenol oxidase 90 U/ml, asparaginase 20 U/ml
Protocol: (§1) S. sanguis 10556, A. naeslundii strains 12104 and T14V and E. coli were grown static cultures in Todd-Hewitt broth (BBL Microbiology Systems, Cockeysville, Md.). P. gingivalis W50, A. actinomycetemcomitans and C. ochracea were grown in brain heart infusion broth (BBL). F. nucleatum 22586 and P. intermedia 25611 were grown in modified Schaedler broth (BBL). All oral species except S. sanguis 10556 were incubated at 37° C. as static cultures under an anaerobic atmosphere containing H2, CO2 and N2(10:10:80) with GasPaks (BBL). S. sanguis was incubated at 37° C. as static cultures in 5% CO2.
(§2) Bacteria were harvested in the mid to late exponential growth phase by centrifugation (10,000×g for 10 min at 4° C.). The cells were washed twice in coaggregation buffer (30 mM 3-[N-morpholino]propanesulfonic acid (MOPS), pH 7.0) and adjusted to an optical density of 0.6-0.8 at 540 nm (1-cm path). […]
(§3) Coaggregation was assessed by turbidity changes. Following mixing of the cells for 10 s on a Vortex mixer, absorbance readings were made every 30 min. The percentage of coaggregation was calculated from the following formula: Percent coaggregation=[OD540(A)+OD540(B)−OD540(A+B)]/(OD540(A)+OD540(B)), where A is the control containing cells of one strain, B is the control containing cells of the other strain, and A+B is the reaction mixture containing both cells. […]

[4] = test system: A. naeslundii ATCC 12104 (adhesin) / Capnocytophaga ochracea (receptor); experiment: Coaggregation A. naeslundii ATCC 12104 / Capnocytophaga ochracea; settings: A. naeslundii ATCC 12104 (adhesin) enzyme treated; polyphenol oxidase 90 U/ml, asparaginase 20 U/ml
Protocol: as §1, §2, §3

B1: asparaginase: enzyme that catalyzes hydrolysis of the side chain amide group of asparagine to a carboxyl group; E. coli asparaginase (protein, UniProt P00805 23-348, looked up)
L-asparaginase 2: LPNITILATGGTIAGGGDSATKSNYTVGKVGVENLVNAVPQLKDIANVKGEQVVNIGSQDMNDNVWLTLAKKINTDCDKTDGFVITHGTDTMEETAYFLDLTVKCDKPVVMVGAMRPSTSMSADGPFNLYNAVVTAADKASANRGVLVVMNDTVLDGRDVTKTNTTDVATFKSVNYGPLGYIHNGKIDYQRTPARKHTSDTPFDVSKLNELPKVGIVYNYANASDLPAKALVDAGYDGIVSAGVGNGNLYKSVFDTLATAAKTGTAVVRSSRVPTGATTQDAEVDDAKYGFVASGTLNPQKARVLLQLALTQTKDPQQIQQIFNQY
For B1, which “ability of cells to aggregate high molecular weight dextrans” value [1] is on record?
Its value is “reduced”.

What about the “hydrolysis of the collagen substrate (azocoll)” value [2] of the same molecule?
Its value is “reduction of the hydrolysis”.

What about the Hemagglutination (Salmonella enteritidis; SE 79, dilution 1/1) of the same molecule?
Its Hemagglutination is “+”.

And the Hemagglutination (Salmonella enteritidis; SE 79, dilution 1/2)?
The Hemagglutination was “−”.

What about the Hemagglutination (Salmonella enteritidis; SE 79, dilution 1/4) of the same molecule?
The Hemagglutination was “−”.

And the Hemagglutination (Salmonella enteritidis; SE 79, dilution 1/8)?
The Hemagglutination was “−”.

What about the Hemagglutination (Salmonella enteritidis; SE 79, dilution 1/16) of the same molecule?
Its Hemagglutination is “−”.

What about the Hemagglutination (Salmonella enteritidis; SE 79, dilution 1/32) of the same molecule?
Its Hemagglutination is “−”.

And the Hemagglutination (Salmonella enteritidis; SE 79, dilution 1/64)?
Its Hemagglutination is “−”.

What about the Hemagglutination (Salmonella enteritidis; SE 79, dilution 1/128) of the same molecule?
The Hemagglutination was “−”.

What about the Hemagglutination (Salmonella enteritidis; SE 89-8312, dilution 1/1) of the same molecule?
The Hemagglutination was “−”.

What about the Hemagglutination (Salmonella enteritidis; SE 89-8312, dilution 1/2) of the same molecule?
The Hemagglutination was “−”.

And the Hemagglutination (Salmonella enteritidis; SE 89-8312, dilution 1/4)?
The Hemagglutination was “−”.

And the Hemagglutination (Salmonella enteritidis; SE 89-8312, dilution 1/8)?
The Hemagglutination was “−”.

And the Hemagglutination (Salmonella enteritidis; SE 89-8312, dilution 1/16)?
The Hemagglutination was “−”.

What about the Hemagglutination (Salmonella enteritidis; SE 89-8312, dilution 1/32) of the same molecule?
Its Hemagglutination is “−”.

And the Hemagglutination (Salmonella enteritidis; SE 89-8312, dilution 1/64)?
The Hemagglutination was “−”.

And the Hemagglutination (Salmonella enteritidis; SE 89-8312, dilution 1/128)?
Its Hemagglutination is “−”.

And the Hemagglutination (Salmonella enteritidis; SES1-0072-Z, dilution 1/1)?
The Hemagglutination was “+”.

What about the Hemagglutination (Salmonella enteritidis; SES1-0072-Z, dilution 1/2) of the same molecule?
The Hemagglutination was “−”.

And the Hemagglutination (Salmonella enteritidis; SES1-0072-Z, dilution 1/4)?
The Hemagglutination was “−”.

And the Hemagglutination (Salmonella enteritidis; SES1-0072-Z, dilution 1/8)?
The Hemagglutination was “−”.

And the Hemagglutination (Salmonella enteritidis; SES1-0072-Z, dilution 1/16)?
Its Hemagglutination is “−”.

What about the Hemagglutination (Salmonella enteritidis; SES1-0072-Z, dilution 1/32) of the same molecule?
Its Hemagglutination is “−”.

What about the Hemagglutination (Salmonella enteritidis; SES1-0072-Z, dilution 1/64) of the same molecule?
Its Hemagglutination is “−”.

And the Hemagglutination (Salmonella enteritidis; SES1-0072-Z, dilution 1/128)?
Its Hemagglutination is “−”.

What about the “Percent Inhibition” value (S. pyogenes; Strain M4, asparaginase 100 U/ml) of the same molecule?
The value was 62%.

And the “# S. pyogenes buccal cell, Asparaginase (100 U/ml)” value (“# S. pyogenes buccal cell” for short) (S. pyogenes; Strain M4, asparaginase 100 U/ml, untreated 183)?
Its value is 69.

And the “Percent Inhibition” value (S. pyogenes; Strain M12 AC, asparaginase 100 U/ml)?
The value was 53%.

And the “# S. pyogenes buccal cell” value (S. pyogenes; Strain M12 AC, asparaginase 100 U/ml, untreated 191)?
The value was 89.

What about the “Percent Inhibition” value (S. pyogenes; Strain M14, asparaginase 100 U/ml) of the same molecule?
The value was 43%.

What about the “# S. pyogenes buccal cell” value (S. pyogenes; Strain M14, asparaginase 100 U/ml, untreated 183) of the same molecule?
Its value is 105.

What about the “Percent Inhibition” value (S. pyogenes; Strain M14, asparaginase, third line of the strain (line of polyphenol oxidase 300), own concentration not given) of the same molecule?
The value was 47%.

What about the “# S. pyogenes buccal cell” value (S. pyogenes; Strain M14, asparaginase, third line of the strain (line of polyphenol oxidase 300), own concentration not given, untreated 183) of the same molecule?
Its value is 77.

And the “Percent Inhibition” value (S. pyogenes; Strain M15 Lowe, asparaginase 100 U/ml)?
The value was 23%.

And the “# S. pyogenes buccal cell” value (S. pyogenes; Strain M15 Lowe, asparaginase 100 U/ml, untreated 120)?
The value was 93.

And the “Percent Inhibition” value (S. pyogenes; Strain M24, asparaginase 100 U/ml)?
Its value is 61%.

What about the “# S. pyogenes buccal cell” value (S. pyogenes; Strain M24, asparaginase 100 U/ml, untreated 142) of the same molecule?
The value was 55.

What about the “Percent Inhibition” value (S. pyogenes; Strain M24 VAN, asparaginase 100 U/ml) of the same molecule?
The value was 48%.

And the “# S. pyogenes buccal cell” value (S. pyogenes; Strain M24 VAN, asparaginase 100 U/ml, untreated 131)?
Its value is 68.

What about the “Percent Inhibition” value (S. pyogenes; Strain M+, asparaginase 100 U/ml) of the same molecule?
The value was 64%.

And the “# S. pyogenes buccal cell” value (S. pyogenes; Strain M+, asparaginase 100 U/ml, untreated 148)?
Its value is 53.

What about the “Inhibition % of coaggregation” value ([3]; A. actinomycetemcomitans (receptor) enzyme treated) of the same molecule?
The value was 40%.

And the “Inhibition % of coaggregation” value ([3]; F. nucleatum (adhesin) enzyme treated)?
Its value is 23%.

And the “Inhibition % of coaggregation” value [4]?
Its value is 25%.
